Reference: article PMC8240387

How the values were obtained:
[1] = biological target: Mammalian cell-expressed N6 (mN6), broadly neutralising anti-HIV monoclonal antibody N6 expressed in HEK-293T cells (human); assay: SPR
[2] = biological target: Plant-expressed N6 (pN6), broadly neutralising anti-HIV monoclonal antibody N6 expressed in glycoengineered ΔXF N. benthamiana (human); assay: SPR
Plant-expressed N6 (pN6), broadly neutralising anti-HIV monoclonal antibody N6 expressed in glycoengineered ΔXF N. benthamiana (human), sequence (heavy, as listed by the source, chain 1 of 2): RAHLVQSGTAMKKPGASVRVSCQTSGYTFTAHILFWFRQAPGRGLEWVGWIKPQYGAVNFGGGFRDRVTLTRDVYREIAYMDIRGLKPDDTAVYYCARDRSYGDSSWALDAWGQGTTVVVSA
Plant-expressed N6 (pN6), broadly neutralising anti-HIV monoclonal antibody N6 expressed in glycoengineered ΔXF N. benthamiana (human), sequence (light, as listed by the source, chain 2 of 2): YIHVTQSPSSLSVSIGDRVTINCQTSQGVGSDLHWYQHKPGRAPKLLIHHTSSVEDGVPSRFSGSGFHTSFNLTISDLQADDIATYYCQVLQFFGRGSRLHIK

soluble FcγRIIIa, sequence (P08637 17-208): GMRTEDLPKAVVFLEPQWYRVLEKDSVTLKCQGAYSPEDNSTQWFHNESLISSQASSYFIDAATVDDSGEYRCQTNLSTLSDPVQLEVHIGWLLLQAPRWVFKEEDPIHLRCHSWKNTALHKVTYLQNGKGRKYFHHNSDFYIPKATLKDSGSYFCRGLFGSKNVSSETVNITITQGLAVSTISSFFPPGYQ
Mammalian cell-expressed N6 (mN6), broadly neutralising anti-HIV monoclonal antibody N6 expressed in HEK-293T cells (human), sequence (heavy, as listed by the source, chain 1 of 2): as the sequence (heavy, as listed by the source, chain 1 of 2) above
Mammalian cell-expressed N6 (mN6), broadly neutralising anti-HIV monoclonal antibody N6 expressed in HEK-293T cells (human), sequence (light, as listed by the source, chain 2 of 2): as the sequence (light, as listed by the source, chain 2 of 2) above

Substance | Kd [1] [nM] | Kd [2] [nM]
soluble FcγRIIIa (from UniProt P08637 17-208) (receptor) | 858 | 64.4
recombinant, soluble HIV-1 UG37 gp140 (domain or fragment) | 17.1 | 11.9
